Results on 20 molecules are retold here after patent US20170240628A1 (CELLMID, published 2017).

Substitutions are numbered along the chain they refer to.

First the molecules themselves.
T1: recombinant murine midkine (muMK) (murine, UniProt P12025 23-140)
T1 construct: also called murine MK; Murine MK
T1 sequence (looked up): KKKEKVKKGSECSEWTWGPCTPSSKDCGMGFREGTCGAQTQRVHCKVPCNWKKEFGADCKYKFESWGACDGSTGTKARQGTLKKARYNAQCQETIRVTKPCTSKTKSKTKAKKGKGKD

T2: recombinant human midkine (huMK) (human, UniProt P21741 21-143)
T2 construct: also called human MK; Human MK
T2 sequence (looked up): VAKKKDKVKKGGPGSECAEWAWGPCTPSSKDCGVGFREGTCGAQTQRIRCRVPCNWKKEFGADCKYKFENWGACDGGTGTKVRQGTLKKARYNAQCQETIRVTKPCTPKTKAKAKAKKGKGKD

B1: murine IP14 precursor antibody (antibody, V domains shown)
VH: QVQLQQPGAELVRPGHSVKLSCKASGQSFSSYWMNWVRQRPGQGLEWIGMIHPSDSETILNQKFKDKATLTVDISSNTAYMQLSSPTSEDSAVYFCSSWSAKRGDFWGQGTTLTVSS
VL: DIVLTQSPATLSVTPGDSVNLSCRASESISNNLHWYQQKSHESPRLLIKYASQSISGIPSRFSGSGSGTDFNLSVNSVETEDFGMYFCQQSNSWPLTFGAGTKLELKR
notes: Murine monoclonal antibody; also called mIP14; mAb IP14
B2: mouse-human chimeric IP14 antibody (antibody, V domains shown)
VH: B1 VH
VL: B1 VL
notes: also called chimeric antibody; Hv0 Lv0
B3: IP14-H6L8 (antibody, V domains shown)
VH: QVQLVQSGGGLVKPGHSLRLSCAASGQSFSSYWMNWVRQAPGKGLEWIGMIHPSDSETILNQKFKDKATLSVDIAKNSAYLQMNSLRAEDTAVYYCSSWSAKRGDFWGQGTLVTVSS
VL: DIVLTQSPATLSLSPGERATLSCRASESISNNLHWYQQKPHQAPRLLIYYASQSISGVPARFSGSGSGTDFTLTISSVEPEDFAVYYCQQSNSWPLTFGQGTKVEIKR
notes: also called hIP14-H6L8; Hv6 Lv8
B4: IP14-H5L8 (antibody, V domains shown)
VH: B3 VH with K13Q, H16G, K43Q, S71T, A75S, S78T
VL: B3 VL
notes: also called hIP14-H5L8; Hv5 Lv8
B5: IP14-H2L6 (antibody, V domains shown)
VH: QVQLVQSGAEVKKPGASVKVSCKASGQSFSSYWMNWVRQAPGQGLEWIGMIHPSDSETILNQKFKDKATLTVDISTSTAYMELSSLRSEDTAVYYCSSWSAKRGDFWGQGTLVTVSS
VL: EIVLTQSPSTLSASVGDRVNITCRASESISNNLHWYQQKPHKAPKLLIYYASQSISGVPSRFSGSGSGTEFNLTISSVQPDDFATYYCQQSNSWPLTFGQGTKVEIKR
notes: also called Hv2 Lv6
B6: IP14-H2L4 (antibody, V domains shown)
VH: B5 VH
VL: EIVLTQSPDFQSVTPKEKVNITCRASESISNNLHWYQQKPHQSPKLLIYYASQSISGVPSRFSGSGSGTDFNLTINSVEAEDAATYYCQQSNSWPLTFGGGTKLEIKR
notes: also called Hv2 Lv4
B7: IP14-H1L4 (antibody, V domains shown)
VH: B5 VH with A16H, L86P
VL: B6 VL
notes: also called Hv1 Lv4
B8: IP14-H1L6 (antibody, V domains shown)
VH: B5 VH with A16H, L86P
VL: B5 VL
notes: also called Hv1 Lv6
B9: IP14-H5L6 (antibody, V domains shown)
VH: B3 VH with K13Q, H16G, K43Q, S71T, A75S, S78T
VL: B5 VL
notes: also called Hv5 Lv6
B10: IP14-H6L7 (antibody, V domains shown)
VH: B3 VH
VL: B3 VL with T20N, T72N
notes: also called Hv6 Lv7
B11: IP14-H5L4 (antibody, V domains shown)
VH: B3 VH with K13Q, H16G, K43Q, S71T, A75S, S78T
VL: B6 VL
notes: also called Hv5 Lv4
B12: IP14-H2L8 (antibody, V domains shown)
VH: B5 VH
VL: B3 VL
notes: also called hIP14-H2L8; Hv2 Lv8
B13: IP14-H2L3 (antibody, V domains shown)
VH: B5 VH
VL: B3 VL with H41G, V58I, S67P, V78L, Q100G, V104L
notes: also called hIP14-H2L3; Hv2 Lv3
B14: IP14-H2L7 (antibody, V domains shown)
VH: B5 VH
VL: B3 VL with T20N, T72N
notes: also called Hv2 Lv7
B15: IP14-H2L1 (antibody, V domains shown)
VH: B5 VH
VL: B3 VL with D1E, T20N, Y49K, V58I, S67P, T72N, Q100G, V104L
notes: also called Hv2 Lv1
B16: IP14-H3L1 (antibody, V domains shown)
VH: B5 VH with I48M, A68V, L70M, V72R, I74T, A79V, S97A, S98R
VL: B3 VL with D1E, T20N, Y49K, V58I, S67P, T72N, Q100G, V104L
notes: also called Hv3 Lv1
B17: IP14-H1L8 (antibody, V domains shown)
VH: B5 VH with A16H, L86P
VL: B3 VL
notes: also called hIP14-H1L8; Hv1 Lv8
B18: IP14-H6L6 (antibody, V domains shown)
VH: B3 VH
VL: B5 VL
notes: also called Hv6 Lv6
B19: IP14-H6L4 (antibody, V domains shown)
VH: B3 VH
VL: B6 VL
notes: also called Hv6 Lv4
B20: IP14-H3L2 (antibody, V domains shown)
VH: B5 VH with I48M, A68V, L70M, V72R, I74T, A79V, S97A, S98R
VL: B3 VL with D1E, H41G, Y49K, V58I, S67P, Q100G, V104L
notes: also called Hv3 Lv2

The first test deals with T1, recombinant murine midkine (muMK). The experiment in a line: ELISA by the methods of Example 2 (printed as KD). Here is the method:
(§1) The binding specificity and affinity of the humanised anti-MK antibodies to recombinant human MK (huMK) and murine MK (muMK) was assessed by ELISA. ELISA plates (Nunc Immuno MaxiSorp 96 well flat-bottom were coated with 100 uL of 2 ug/mL of either huMK or muMK in 2% BSA/PBS (overnight at room temperature). After washing, blocking (1 h at 37° C.), and washing again, the humanised anti-MK and chimeric antibodies described in Example 1 were analysed for binding to huMK or muMK at concentrations ranging between 3 μg/ml and 0.00004 μg/ml in 2% BSA/PBS (1 h at 37° C.). After washing, the binding of antibody was detected with goat anti-mouse IgG (Fab specific)-HRP conjugate (Sigma, Cat. No. A9917) and SigmaFast OPD substrate (Sigma, Cat. No. P9187). The reaction was stopped with 3 M HCl, absorbance read at 490 nm on a Dynex Technologies MRX TC II plate reader and the binding curves plotted. Binding affinity data for the humanised anti-MK antibodies to huMK and muMK are presented in Table 6 and Table 7 respectively, and in FIG. 3.
(§2) KD values for hIP14-H5L8, hIP14-H6L3 and hIP14-H6L8 was then compared with the KD values obtained for the corresponding murine IP14 precursor antibody and the chimeric antibody using the methods described in Example 2. As is apparent from Table 7, the humanised mIP14 antibodies designated hIP14-H5L8, hIP14-H6L3, and hIP14-H6L8 were each shown to have better binding affinity than the murine IP14 precursor antibody and the chimeric antibody for huMK and muMK. Based on this finding, these candidate antibodies were produced to 100 mg scale to enable further testing in functional assays to determine biological function.
For orientation: An ELISA detects its analyte on a solid surface through an enzyme-linked reagent.
As for B1, the Kd (as a rule, a measure of binding affinity in units of concentration) stood at 0.166 nM.

In the case of B2, the Kd is 0.13 nM.

On to B3, for which the Kd is 0.091 nM.

For the molecule B4, the Kd was 0.05 nM.

In the next test the target is T2, recombinant human midkine (huMK). The experiment in a line: ELISA by the methods of Example 2 (printed as KD). Here is the method:
as §1, §2
For B1, the Kd came to 0.144 nM.

As for B2, the Kd turned out to be 0.104 nM.

Turning to B3, the Kd came out at 0.042 nM.

With B4, the Kd was found to be 0.06 nM.

Another test has the same target. The test is described as follows: cell-based or functional assay.
For the molecule B1, the “% Inhibition of UMR106 cell migration, Assay 4” value (“% Inhibition … Assay 4” for short) is 6%; the “% Inhibition of UMR106 cell migration, Assay 5” value (shortened to “% Inhibition … Assay 5”) turned out to be 10%; the “% Inhibition of UMR106 cell migration, Assay 6” value (“% Inhibition … Assay 6” below) is 38%; the “Mean % Inhibition of UMR106 cell migration” value (from here on “Mean % Inhibition”) is 18%. The “Mean Cells/Field, Assay 4 (UMR106 migration, antibody 100 ug/mL, MK-17 20 µg/mL)” value came out at 45 cells/field; the “Mean Cells/Field, Assay 5 (UMR106 migration, antibody 100 ug/mL, MK-17 20 µg/mL)” value came to 38 cells/field; the “Mean Cells/Field, Assay 6 (UMR106 migration, antibody 100 ug/mL, MK-17 20 µg/mL)” value is 26 cells/field.

For B3, the “% Inhibition … Assay 4” value stood at 44%; the “% Inhibition … Assay 5” value came out at 24%; the “% Inhibition … Assay 6” value was determined as 48%; the “Mean % Inhibition” value is 38.7%. In addition, the “Mean Cells/Field, Assay 4 (UMR106 migration, antibody 100 ug/mL, MK-17 20 µg/mL)” value was 27 cells/field; the “Mean Cells/Field, Assay 5 (UMR106 migration, antibody 100 ug/mL, MK-17 20 µg/mL)” value turned out to be 32 cells/field; the “Mean Cells/Field, Assay 6 (UMR106 migration, antibody 100 ug/mL, MK-17 20 µg/mL)” value is 22 cells/field.

B4: the “% Inhibition … Assay 4” value worked out at 60%; the “% Inhibition … Assay 5” value came to 31%; the “% Inhibition … Assay 6” value amounted to 31%; the “Mean % Inhibition” value came out at 40.7%. Also, the “Mean Cells/Field, Assay 4 (UMR106 migration, antibody 100 ug/mL, MK-17 20 µg/mL)” value is 19 cells/field; the “Mean Cells/Field, Assay 5 (UMR106 migration, antibody 100 ug/mL, MK-17 20 µg/mL)” value was 29 cells/field; the “Mean Cells/Field, Assay 6 (UMR106 migration, antibody 100 ug/mL, MK-17 20 µg/mL)” value worked out at 29 cells/field.

The target is the same in a further test. The experiment in a line: ELISA, plate coated with huMK. Here is the method: as §1
Regarding B5, the EC50 (usually the concentration needed to bring the measured effect to its halfway point) turned out to be 0.054 nM.

On to B6, for which the EC50 was determined as 0.053 nM.

As for B7, the EC50 stood at 0.05 nM.

As for B8, the EC50 turned out to be 0.053 nM.

B2: the EC50 stood at 0.104 nM.

For B3, the EC50 turned out to be 0.042 nM.

As for B9, the EC50 stood at 0.073 nM.

Take B10: the EC50 was 0.068 nM.

For B11, the EC50 stood at 0.069 nM.

Turning to B12, the EC50 turned out to be 0.056 nM.

As for B4, the EC50 is 0.06 nM.

As to B13, the EC50 came out at 0.068 nM.

B14: the EC50 was found to be 0.058 nM.

Consider B15, for which the EC50 turned out to be 0.093 nM.

B16: the EC50 stood at 0.091 nM.

Turning to B17, the EC50 came out at 0.05 nM.

In the case of B18, the concentration giving a half-maximal response (EC50) was 0.088 nM.

Regarding B19, the EC50 was determined as 0.073 nM.

As for B20, the EC50 was 0.082 nM.

In another test the target is T1, recombinant murine midkine (muMK). The experiment in a line: ELISA, plate coated with muMK. Here is the method: as §1
With B5, the EC50 came to 0.073 nM.

Consider B6, for which the EC50 was found to be 0.078 nM.

Regarding B7, the EC50 was 0.081 nM.

For the molecule B8, the EC50 was 0.087 nM.

Take B2: the EC50 worked out at 0.13 nM.

For the molecule B3, the EC50 was 0.091 nM.

As for B9, the EC50 is 0.044 nM.

For the molecule B10, the EC50 was determined as 0.051 nM.

In the case of B11, the EC50 stood at 0.051 nM.

With B12, the EC50 is 0.069 nM.

Consider B4, for which the EC50 was determined as 0.05 nM.

For B13, the EC50 is 0.081 nM.

Consider B14, for which the EC50 worked out at 0.071 nM.

On to B15, for which the EC50 stood at 0.09 nM.

As for B16, the EC50 turned out to be 0.12 nM.

With B17, the EC50 was determined as 0.089 nM.

Take B18: the EC50 turned out to be 0.048 nM.

Regarding B19, the EC50 is 0.051 nM.

Take B20: the 50% effective concentration (EC50) was 0.1 nM.
